± gives the uncertainty stated by the source.
Assay: amyloid nucleation score (Sup35N fusion, yeast selection) (log enrichment); library NNK3; higher = more nucleation; inactive = no reads after selection
How it was run: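 Growth for 7 days at 30°C on medium lacking adenine and uracil followed a 24-hour induction with 100 μM copper sulfate of psi-negative yeast expressing peptides of 20 random codons fused to Sup35N. Input and output plasmid inserts were sequenced with Illumina, and sequences with under 100 input reads were excluded. Nucleation score is the DiMSum log enrichment of output over input reads, centred on the mode score of non-aggregating sequences.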

NDCRCTIFAAYIKILYKFLG
amyloid nucleation score: 1.13 ± 0.097

VDEAEKGVNHLERRGSYSRY
amyloid nucleation score: inactive

QEGGRWEPQKGRWESQAYLS
amyloid nucleation score: -0.062 ± 0.49

DADTW
amyloid nucleation score: inactive

IFNKVSLYNEMLVWVLTWSW
amyloid nucleation score: inactive

VLKARMY
amyloid nucleation score: inactive

PWHLIIDLQGWIFLVYEIGQ
amyloid nucleation score: inactive

TPLESGLSI
amyloid nucleation score: inactive

CAKLLYGCDTSFREWMVGAE
amyloid nucleation score: inactive

YIPVSTFM
amyloid nucleation score: -0.135 ± 0.6

HLSSNVLNYVLNFHWFCNFG
amyloid nucleation score: 0.836 ± 0.16

NAYSSLQWREIVSHIYQSCQ
amyloid nucleation score: inactive

DMINSGQISDHVLD
amyloid nucleation score: inactive

VLGLFSTYDSFVCFN
amyloid nucleation score: inactive

VIMVSSRDQADLCESVMQM
amyloid nucleation score: inactive

LLSDICFCYYAREIRNSGCS
amyloid nucleation score: inactive

FSFRTMYVFDPLYNKYRIFM
amyloid nucleation score: 0.125 ± 0.6

CPTCESGKERGVKYVKFLNW
amyloid nucleation score: inactive

DSRMF
amyloid nucleation score: inactive

QHRSESIFFVIKSLLLRGCI
amyloid nucleation score: inactive

IPGYLLDHTAHK
amyloid nucleation score: inactive

KCAALLDPDSASGGRCEWNC
amyloid nucleation score: 1.08 ± 0.17

YVLNKGFWGGNTLQSWRVSD
amyloid nucleation score: inactive

IKRCK
amyloid nucleation score: 1.39 ± 0.076

ERRIDG
amyloid nucleation score: 1.23 ± 0.094

FNVSTGCRWSWAPDHSPCQE
amyloid nucleation score: -0.058 ± 0.66

QGNRS
amyloid nucleation score: inactive

EDPGLYFLRVS
amyloid nucleation score: inactive

FTGFN
amyloid nucleation score: inactive

YKFLLFFFYSISAFGNDSCD
amyloid nucleation score: inactive

TSMSGDVHVVYVVVEHVKPP
amyloid nucleation score: 2.46 ± 0.089

TRMSGRHLCVITACLLTLNC
amyloid nucleation score: 0.576 ± 0.15

SDYHWYVRTSCGSFSYGHVN
amyloid nucleation score: inactive

GALMCPPRLVS
amyloid nucleation score: inactive

NWRMVQNQVVWVLRLNTYHY
amyloid nucleation score: inactive

VISYYIATGGFIDVFYCCKF
amyloid nucleation score: 2.15 ± 0.085

NDTFNAK
amyloid nucleation score: inactive

ISQFHYLGRIST
amyloid nucleation score: inactive

YNSSYFYMMCPFLSSFSPFS
amyloid nucleation score: 2.81 ± 0.067

SFNHFQCLFISPLTRCARGV
amyloid nucleation score: 1.51 ± 0.13

IERLDNSIVNVMWILSGCKA
amyloid nucleation score: inactive

YDNVVYLIVGHYG
amyloid nucleation score: inactive

ESETWSTYSALQHGQVAIGC
amyloid nucleation score: inactive

PLIWCWKIVGRAWFAESRIL
amyloid nucleation score: inactive

IKPSMQIILWFGLERYSRAW
amyloid nucleation score: -0.308 ± 0.6

IYLIPITPIPVCYKIFLFGM
amyloid nucleation score: 1.19 ± 0.079

FYMDWTGHLQKFNP
amyloid nucleation score: inactive

YVKPDDDAQVKVGWGQFSVG
amyloid nucleation score: inactive

YGKQVLWN
amyloid nucleation score: inactive

LCKSMRNDSLDYFLHCPGML
amyloid nucleation score: inactive

RKLTCTSGLA
amyloid nucleation score: inactive

IKEFLCLDLCQGGGLLSLMV
amyloid nucleation score: inactive

STWRASIVPSFMVRGCWSIK
amyloid nucleation score: inactive

WVNFRSPFLNGANA
amyloid nucleation score: -0.686 ± 0.68

AYLTI
amyloid nucleation score: inactive

FRYPYNPVIREFCTCSSWFL
amyloid nucleation score: 1.73 ± 0.069

GRLALSTRQHLV
amyloid nucleation score: inactive

ELGIII
amyloid nucleation score: inactive

LCVMCCATSFSHVCILIYRI
amyloid nucleation score: inactive

SGSSVPSLYCVDYAVDG
amyloid nucleation score: inactive

AWRCLGSYCMRLRVSIKSQ
amyloid nucleation score: inactive

CKARTSASSNQHRESVYGLE
amyloid nucleation score: inactive

FCENRFTSFLKNVIIW
amyloid nucleation score: 0.398 ± 0.18

GIAGCKSRSCLLPYCNWVSV
amyloid nucleation score: inactive

LDYNVRVGIVSRFTQLTHVN
amyloid nucleation score: inactive

YSIIVSRNRNGRLRFRWSNG
amyloid nucleation score: -0.368 ± 0.8

— the supplement of paper PMC12042874
